Article PMC12081870 (Communications Biology, 2025)

Test: 15N NMR relaxation (T1, T2, NOE) of Sla1 SH3#1&2
Assay type: physicochemical, Saccharomyces cerevisiae
Parameters: Time Constant (T2) / T1 / T2: unit not given here
Details: fit A exp(-Bx), 11 peaks
Description: Fig. 2 A structural analysis of Sla1 SH3 domains 1 and 2. A The predicted interface between the first two SH3 domains of Sla1 as modelled using Alphafold. SH3#1 is shown in light green and SH3#2 is shown in cyan. Residues predicted to form hydrogen bonds using the Pymol search function are shown as sticks and labelled with their respective residue numbers. Dashed black lines indicate interactions. The red line in the structure indicates residues 67–70 in the hinge between the SH3 domains; the magenta loop indicates residues 52–54. B Assignment of the ^1H ^15N HSQC spectrum of Sla1 SH3 domains 1 and 2. C^15N relaxation data for Sla1 SH3#1&2. The linker between domains is approximately residues 67–70 (shown with red line under the trace and in A), and the mobile region 52-54 is part of a loop (shown with magenta line below the trace and in A). The correlation time of 8.5 ns (derived from the trimmed ^15N T1/T2 ratio), matches that calculated for a rigid two-domain structure rather than two independent domains (8.8 and 4.5 ns, respectively).
To investigate further, we purified ^15N, ^13C labelled Sla1 SH3#1&2 and analysed using NMR. A full assignment was obtained (Fig. 2B) which confirmed the Alphafold structure. An important aspect when considering the function of tandem domains is the level of rigidity or flexibility between the domains. […] NMR was used to determine relaxation parameters (^15N R1, R2 and NOE) of ^15N-labelled SH3#1-2 (Fig. 2B). […] The structural unity of the two-domain structure explains why attempts to study SH3#2 alone were unsuccessful.
Experiments were carried out on Bruker DRX-600 and DRX-800 spectrometers fitted with cryoprobes. SH3 domains 1 and 2 were assigned using a standard set of HNCA/HN(CO)CA, HNCO/HN(CA)CO and CBCAHN/CBCA(CO)HN 3D spectra. The assignment has been deposited at BioMagResBank, with code 52650. SH3 domain-3 was assigned by comparison to data provided by Prof Ishwar Radhakrishnan (Northwestern University) for the same domain although with different residues at both ends. Titrations were conducted with three peptides (GenScript Biotech, UK) comprising the three PP motifs (Fig. 3A): p1 […] (residues 318–339); p2 […] (residues 330–361); and p3 […] (residues 375–397). Peptide solutions were prepared as concentrated stock solutions in the same buffer at the same pH and added stepwise to protein solutions. Shift changes were analysed by picking peaks in Felix (Felix NMR Inc, San Diego, CA), which were downloaded to text files and for determining Kd were analysed using Levenberg-Marquardt least squares fitting to the standard quadratic equation[63]. Analysis of the ^15N relaxation data was carried using CCPN Analysis[64].

B1: Sla1 SH3#1-2: SH3#1-2 (aa 5-131), tandem domains; sequence in b253 (protein)
chain: LGIYRAVYAYEPQTPEELAIQEDDLLYLLQKSDIDDWWTVKKRVIGSDSEEPVGLVPSTYIEEAPVLKKVRAIYDYEQVQNADEELTFHENDVFDVFDDKDADWLLVKSTVSNEFGFIPGNYVEPEN
modifications: 15N-labelled (NMR only); left off: GST, end not stated, cleaved
Residue 39, 39AspH/39AspN
  Time Constant (T2): 104.622
Residue 40, 40AspH/40AspN
  Time Constant (T2): 92.3559
Residue 41, 41TrpH/41TrpN
  Time Constant (T2): 105.38
Residue 42, 42TrpH/42TrpN
  Time Constant (T2): 87.941
Residue 43, 43ThrH/43ThrN
  Time Constant (T2): 96.7782
Residue 44, 44ValH/44ValN
  Time Constant (T2): 79.239
Residue 45, 45LysH/45LysN
  Time Constant (T2): 89.2928
Residue 46, 46LysH/46LysN
  Time Constant (T2): 79.9381
Residue 47, 47ArgH/47ArgN
  Time Constant (T2): 96.0563
Residue 48, 48ValH/48ValN
  Time Constant (T2): 80.6125
Residue 49, 49IleH/49IleN
  Time Constant (T2): 93.7827
Residue 50, 50GlyH/50GlyN
  Time Constant (T2): 115.88
Residue 51, 51SerH/51SerN
  Time Constant (T2): 86.3946
Residue 52, 52AspH/52AspN
  Time Constant (T2): 168.141
Residue 53, 53SerH/53SerN
  Time Constant (T2): 144.016
Residue 54, 54GluH/54GluN
  Time Constant (T2): 154.977
Residue 55, 55GluH/55GluN
  Time Constant (T2): 101.598
Residue 57, 57ValH/57ValN
  Time Constant (T2): 100.05
Residue 58, 58GlyH/58GlyN
  Time Constant (T2): 89.0014
Residue 59, 59LeuH/59LeuN
  Time Constant (T2): 85.278
Residue 60, 60ValH/60ValN
  Time Constant (T2): 98.7206
Residue 62, 62SerH/62SerN
  Time Constant (T2): 97.5945
Residue 63, 63ThrH/63ThrN
  Time Constant (T2): 81.7496
Residue 64, 64TyrH/64TyrN
  Time Constant (T2): 104.147
Residue 65, 65IleH/65IleN
  Time Constant (T2): 90.7515
Residue 66, 66GluH/66GluN
  Time Constant (T2): 88.572
Residue 67, 67GluH/67GluN
  Time Constant (T2): 102.479
Residue 68, 68AlaH/68AlaN
  Time Constant (T2): 84.1741
Residue 70, 70ValH/70ValN
  Time Constant (T2): 100.257
Residue 71, 71LeuH/71LeuN
  Time Constant (T2): 80.9555
Residue 72, 72LysH/72LysN
  Time Constant (T2): 97.8301
Residue 73, 73LysH/73LysN
  Time Constant (T2): 97.0107
Residue 74, 74ValH/74ValN
  Time Constant (T2): 95.1713
Residue 75, 75ArgH/75ArgN
  Time Constant (T2): 95.2306
Residue 76, 76AlaH/76AlaN
  Time Constant (T2): 79.2788
Residue 77, 77IleH/77IleN
  Time Constant (T2): 85.3516
Residue 78, 78TyrH/78TyrN
  Time Constant (T2): 77.7575
Residue 79, 79AspH/79AspN
  Time Constant (T2): 86.8514
Residue 80, 80TyrH/80TyrN
  Time Constant (T2): 102.25
Residue 81, 81GluH/81GluN
  Time Constant (T2): 91.1679
Residue 82, 82GlnH/82GlnN
  Time Constant (T2): 103.776
Residue 83, 83ValH/83ValN
  Time Constant (T2): 96.58
Residue 84, 84GlnH/84GlnN
  Time Constant (T2): 115.172
Residue 85, 85AsnH/85AsnN
  Time Constant (T2): 109.146
Residue 86, 86AlaH/86AlaN
  Time Constant (T2): 101.454
Residue 87, 87AspH/87AspN
  Time Constant (T2): 93.3182
Residue 88, 88GluH/88GluN
  Time Constant (T2): 94.5093
Residue 89, 89GluH/89GluN
  Time Constant (T2): 99.1662
Residue 90, 90LeuH/90LeuN
  Time Constant (T2): 96.3149
Residue 91, 91ThrH/91ThrN
  Time Constant (T2): 78.2582
Residue 92, 92PheH/92PheN
  Time Constant (T2): 85.0538
Residue 93, 93HisH/93HisN
  Time Constant (T2): 82.1244
Residue 94, 94GluH/94GluN
  Time Constant (T2): 97.249
Residue 95, 95AsnH/95AsnN
  Time Constant (T2): 98.0824
Residue 96, 96AspH/96AspN
  Time Constant (T2): 93.6871
Residue 97, 97ValH/97ValN
  Time Constant (T2): 100.422
Residue 98, 98PheH/98PheN
  Time Constant (T2): 79.4419
Residue 99, 99AspH/99AspN
  Time Constant (T2): 97.6801
Residue 100, 100ValH/100ValN
  Time Constant (T2): 97.751
Residue 101, 101PheH/101PheN
  Time Constant (T2): 95.7132
Residue 102, 102AspH/102AspN
  Time Constant (T2): 87.4197
Residue 103, 103AspH/103AspN
  Time Constant (T2): 77.1058
Residue 104, 104LysH/104LysN
  Time Constant (T2): 88.8779
Residue 105, 105AspH/105AspN
  Time Constant (T2): 102.407
Residue 106, 106AlaH/106AlaN
  Time Constant (T2): 137.978
Residue 107, 107AspH/107AspN
  Time Constant (T2): 99.1634
Residue 108, 108TrpH/108TrpN
  Time Constant (T2): 105.531
Residue 109, 109LeuH/109LeuN
  Time Constant (T2): 92.4282
Residue 110, 110LeuH/110LeuN
  Time Constant (T2): 99.3469
Residue 111, 111ValH/111ValN
  Time Constant (T2): 90.5694
Residue 112, 112LysH/112LysN
  Time Constant (T2): 92.6618
Residue 113, 113SerH/113SerN
  Time Constant (T2): 88.7102
Residue 114, 114ThrH/114ThrN
  Time Constant (T2): 88.1188
Residue 115, 115ValH/115ValN
  Time Constant (T2): 99.4179
Residue 116, 116SerH/116SerN
  Time Constant (T2): 105.651
Residue 117, 117AsnH/117AsnN
  Time Constant (T2): 79.9936
Residue 118, 118GluH/118GluN
  Time Constant (T2): 87.975
Residue 119, 119PheH/119PheN
  Time Constant (T2): 95.7684
Residue 120, 120GlyH/120GlyN
  Time Constant (T2): 81.3349
Residue 121, 121PheH/121PheN
  Time Constant (T2): 97.0012
Residue 122, 122IleH/122IleN
  Time Constant (T2): 86.8543
